Columns and labels:
Experiment in all cases: BLI
[1] = test system: Influenza A virus virions (hemagglutinin is the stated target of RHA0385) (Influenza A virus H7N1); settings: BLI: PBS pH 7.4 ([…]; temperature not stated
[2] = test system: Respiratory syncytial virus virions (surface protein not named) (Respiratory syncytial virus A2); settings: BLI: PBS pH 7.4 (8 mM Na2HPO4, 1.5 mM KH2PO4, 140 mM NaCl, 10 mM KCl), 0.01% Tween-20, 0.1 mg/mL BSA; biotin-aptamer on streptavidin sensor; virus as analyte …
[3] = molecular target: SARS-CoV-2 virions (S protein RBD is the stated target of RBD-1C) (SARS-CoV-2) (UniProt P0DTC2); settings: BLI: PBS pH 7.4 ([…]; temperature not stated
[4] = test system: Adenovirus type 5 virions (surface protein not named) (Human adenovirus 5?); settings: BLI: PBS pH 7.4 (8 mM Na2HPO4, 1.5 mM KH2PO4, 140 mM NaCl, 10 mM KCl), 0.01% Tween-20, 0.1 mg/mL BSA; biotin-aptamer on streptavidin sensor; virus as analyte …

| Sequence | Kd [1] [pM] | Kd [2] [pM] | Kd [3] [pM] | Kd [4] [pM] |
| --- | --- | --- | --- | --- |
| AGTGCGGTGAGCCGTCGGACATACAAATAC [Biotin-H8] | 3.5 | 0.031 |  |  |
| CAGCACCGACCTTGTGCTTTGGGAGTGCTGGTCCAAGGGCGTTAATGGACA [Biotin-RBD-1C] |  |  | 0.071 |  |
| GTGCCAGCTATGCCATTGGCGGGTCGTCCAATTCGAGAGGTCCCCTAGCGTCTATCTCTGCTGC [Biotin-ADV-20] | 2.6 | 0.38 | 50 | 0.011 |
| TTGGGGTTATTTTGGGAGGGCGGGGGTT [Biotin-RHA0386 (RHA0385 in text)] | 0.021 |  |  |  |

— publication PMC10178974
